From the nanobody polyreactivity screen of Harvey et al. (2022)

Test: yeast display, Sf9 membrane polyspecificity reagent, FACS + sequencing; frameworks hold sequencing errors
Summary of the method: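 In a synthetic yeast display library (Saccharomyces cerevisiae BJ5465), nanobody expression was induced with galactose for 36–48 hours. FACS gates were set low and high (top ~1%) using anti-HA fluorescence for expression and streptavidin fluorescence for binding of the Sf9 membrane reagent. Each polyreactivity label is drawn from the gate of origin.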

Row | Sequence | polyreactivity (PSR sort gate)
1 | QVQHVESGGGLVQAGGSLRLSCAASGFTFVYYAMGWYRQAPGKERELVAAISRSGSRTYYADSVKGRFTISRDNAKKTVYLQMNSLKPEDTAVYYCAVAGYSPYLYRYGYWVQGTQVTVSS | high polyreactivity
2 | QVQLVESGGGLVQAGGSLRLSCAASGSIIPGYTMGWYRQAPGKERELVAAISRRGGSTYYADSVKGRFTISRDNAKNTVYLQMNSLKPEDTAVYYCAASLWYRISKYDYWGQGTQVTVSS | high polyreactivity
3 | QVQLVESGGGLVQAGGSLRLSCAASGFTFRYYAMGWYRQAPRKERELVAAIPRNGGSTYYADTVKGRFTISRDNAKNTVYLQMKSLKPEDTAVYYCAAAYYRDSDRRFNYWGQGTQVTVSS | high polyreactivity
4 | QVQLVESGGGIVQAGGSLRFSCAASGSTFLYYAMGWYRLAPGKETEFVADISFSGGSTYYADSVKGRFTSSRDNAKNTVYLQMNSLKPEDTGVYNCAARKKEYKAGNYWGQGTQVNVSS | low polyreactivity
5 | QVQLVESGGGLVQAGGSLRLSCAASGRIFQYYVMGWYRQAPGKERELVAAITSGGGTKYADSVKGRFTISRDNAKNTVYLQMNSLKPEDTAVYYCAAAWFDQYSRYDYWGQGTQVTVSS | low polyreactivity
6 | QVQLVESGGGLVQAGGSLRLTCAASGSIFWPNAMGWYRPAPGKERELVAAISWGTGSTYYADSVKGRFTISRDNAKNTVYLQMNSLKPEDTAVYYCAADGAYLDPYYDYWGQGTQVTVSS | low polyreactivity
7 | QVQLVESGGGLLQAGGSLRLSCAASGFTFSFYARGWYRQAPGKERELVAAISYSGGITYYADSVKGRFTISRDNAKNTVYLQINSLKPEDTAVYYCAAVPGISVGRQPGYDYDYWGHGTQVTVSS | low polyreactivity
8 | QVQLVESGVGLVQAGGSLRLSCAASGSIFYENAMGWYRQEPGKEREFVATIDLIGDRTFYADSVKVRFTISRDNAKNTVYLQMNSLKPEDTAVYYCAAERVGVFFRYDYWGQGTQVTVSS | low polyreactivity
9 | QVQLVESGGGLVQAGGSLRLSCAASGRIFYQNAMGWYRQAPGKARELVADSASGGSTYYADSVKGRFTISRDNAKNTVYLQMNSLKPEDPAVYYCATAVLYGDGWYYYWGQGTQVTVSS | low polyreactivity
10 | QVQLVESGGGLVQAGGSLRLSCAASGFTFYRNAMRWYRQAPGKERELVAAISRGGRTYYADSVKGRFTISRDNAKNTVYLQMNSLKPEDTAVYYCARKYTRKIPASDYWGQGTQVTVSS | high polyreactivity
11 | QVHLVESGGRLVQAGVSLRLSCAASGRIFSNYAMGWYIQAPGKERELVAAISRGGGRTFYADSVKGRFTISRDNAKNTVYLQMNSLKPEDTAVYYCATRSYYVKGDYWGQGTQVTVSS | high polyreactivity
12 | QVQLVESGGGLVQAVGSLRLSCAPSGTTFTHYAMGWYRKAPGKERELVAAISWSGGSTYYADSVKGRFTISRDNAKNTVYLQMNSLKQEDCAVYYCKTYGVSYYGSGYYWGQGTQVTVSS | high polyreactivity
13 | QVHLVESGGGLVQAGGSLRLSCAASGSTFKIYAMGWYRQAPGKERELVAAITRGGSTNYADSVKGRFTISRDNAKNTVYLQMNSLKPEDTAVYYCAASYWYRRYGTYTYDYWGQGTQVTVSS | high polyreactivity
14 | QDQHVESGGGLVQAGGRLSLICAASAFISVRNAMGWYRQAPGKERELVAAISSGDTTDYADSLKGRFTISRDNAKNTVYLLMNSLKPEDTAVYYCAAVYSGRYYYWGQGTQVTVSS | low polyreactivity
15 | QVQLVESGGGLVQAGGSLRLSCAASGNNFSAYAMGWYRQAPGKERELVATITSGGRTYYADSVKGRFTISRDNAKNTVYLQMNSLKPEDTAVYYCAADGPYYSPYYYWGQGTQVTVSS | low polyreactivity
16 | QVQLVESGGGLVQAGGSLRLSCAASGSTFSDYPMGWYRQAPGKERELVAAISDSGSGTYYADSVKGRFTISRDNAKNTVYLQMNSLKPEDTAVYYCNTDPRFAMDWGQGTQVTVSS | low polyreactivity

Row | Sequence | polyreactivity (PSR sort gate)
17 | QVQLVESGGGLVQAGGSLRLSCAASGRTFYVKSMGWYRQAPGKERELVAGISFSDGSTYYADSVKGRFTISRDNAKNTVYLQMNSLKPEDTAVYYCATVGAFDIYYGYGYWGQGTQVTVSS | low polyreactivity
18 | QVQLVESGGGLVQAGGSLRLSCAASGSTITQYAMGWYRQAPGKEREFVAAINSRGDSTYYADSVKGRFTISRDNAKNTVYLQMNSLKPEDTAVYYCNADYQTDDDPYGYDYWGQGTQVTVSS | low polyreactivity
19 | QVQLVESGGGVVQAGGSLRLSCAASGRIFERNAMGSYRQSPVKERELVARITSGGGTYYADSVKGRFTISRDNAKNTVYLQMNSLKPEDSAVYYSAVQYLYRKYRRYDYWGLGTQVTVSS | high polyreactivity
20 | QVQLVESGGGLVQAGGSLRLSCAASGRTSVIYAMGWYRPAPGKERELVAGISYRGTSTYYADSVKGRFTISRDNAKNTVYLLMNSLKPEDTAVYYCAAESYYKYFNNYDYWGQGTQVTVAS | high polyreactivity
21 | QVQLVESGGGLVQAGGSLRLSCAASGLIFFTYAMGWYRQAPGKERELVATISRGGRTKYADSVKGRFTISRDNAKNTVYLQMNSLKPEDTAVSYCAAYLSRSYYAYDYWGQGTQVTVSS | high polyreactivity
22 | QVQLVESGGGLVQAGGSLRLSCAASGSIFQYYVMGWYRQAQGKERELVAAISRGGGSTYYADSLKGRFTISRDNAKNTVYLQMNSMKPEDTAVYYCAKRTTRLAPYDYWGQGTQVTVSS | high polyreactivity
23 | QVQLVESGGGLVQAGGSLRLSCAASGSIFPPNAMGWYRQAPGKERELVAGISQSGGSTYYADSVKGRFTISRDNAKNTVYLQMNSLKPEDTAVYYCARSFYSGRRYYYWGQGTQVTVSS | high polyreactivity
24 | QVQLVESGGGLVQAGGSLRLSCAASGLIFGDYAMGWYRPAPGKERELVAAITGSVTRTYYADSVKGRFTISRDNAKNTVYLQMNSLKPEDTAVYYCATRVHYIGFYDYDYWGQGTQVTVSS | low polyreactivity
25 | QVQLVESGGGLVQAGGSLRLSCAASGFTFAYYAMGWYRQAPRKESELVAGISWRGGRTYYADSVKGRFTISRDNAKNTVYLQMNSLKPEDTAVYYCAKQPGNFGRFDYWGQGTQVTVSS | high polyreactivity
26 | QVQLVESGGGLVQAGGSLRLSCAASGITFYRYTMGWYRQAPGKERELVATITSGASTSYADSVKGRFTISRDNAKNTVYLQMNSLKPEDTAVYYCAARRTRVTGRYSVYAFDYWGQGTQVTVSS | low polyreactivity
27 | QVQLVESGGGLVQAGGSLRLSCAASGSTYGGYTMGWYRPAPGKVWELVAAIRLSGVSTYYADSVKGRFTISRDNAKNTVYLQMNSLKPEDTAVYYCAARGWYRYGSVYYIGDYWGQGTQVTVSS | high polyreactivity
28 | QVQLVESGGGLVQAGGSLRLSCAASGLTFLYYSMGWYRQAPGKERELVAAISTRGGSTYYADSVKGRFTISRDNAKNTVYLQMNSLKPEDTAVYYCNAKLIVTPGRGDYWGQGTQVSVSS | high polyreactivity
29 | QVQLVESGGGLVQAGGSLRLSCAASGSIFRTNAMGWYRQAPGKEREFVASISSDSGNTYYADSVKGRFTISRDNAKYTVYLQMNSLKPEDTAVYYCARRKVRYWSYRAANYYWGQGTQVTVSS | low polyreactivity
30 | QVQLVESGGGLVQAGGSLRLSCAASGSTFDYYAMGWYRQAPGKERELVATISWSGTDTYYADSVKGRFTISRDNAKNTVYLQMNSLKPEDTAVYYCAADTVYWRGWSGYYYWGQGTQVTVSS | low polyreactivity
31 | QVQLVESGGGLVQAGGSLRLSCAAYGSIFDANAMGWYRQAPGKEREFLAAINCTGGSTYYAESVKGRFTISRDYAKNTVYLQMNILKPEDTAGYYCAAEWWYQNNPEIYYYWGQGIQVTVSS | high polyreactivity
32 | QVQLVESGGGLVQAGGSLRLSCAASGIIFRGNAMGWYRQAPGKERELVAGISSRGGSTYYADSVKGRFTISRDNAKNTVYLQMNSLKPEDTAVYYCAAQYRSYLSGYGYWGQGTQVTVSS | high polyreactivity
